Legend:
Assay in all cases: cell_activity
[1] = system: TlpA (Salmonella typhimurium); conditions: thermal derepression of GFP in E. coli, 31.4 to 44.6 C
[2] = system: TlpA36 (Salmonella typhimurium); conditions: thermal derepression of GFP in E. coli, 31.4 to 44.6 C
[3] = system: TlpA39 (Salmonella typhimurium); conditions: thermal derepression of GFP in E. coli, 31.4 to 44.6 C
[4] = target: TcI (cI857, A67T) (bacteriophage lambda) (UniProt P03034); conditions: thermal derepression of GFP in E. coli, 34.2 to 40 C; text gives >1,432
[5] = target: TcI38 (bacteriophage lambda) (UniProt P03034); conditions: thermal derepression of GFP in E. coli, 32.4 to 40 C
[6] = target: TcI42 (bacteriophage lambda) (UniProt P03034); conditions: thermal derepression of GFP in E. coli, 32.4 to 45.7 C

Row | Substance | activity [1] [fold] | activity [2] [fold] | activity [3] [fold] | activity [4] [fold] | activity [5] [fold] | activity [6] [fold]
1 | TlpA operator/promoter, 52 bp | 355 | 370 | 1520 |  |  | 
2 | tandem pR/pL operator/promoter |  |  |  | 1430 | 1030 | 1690

Reference: patent publication US20210277453
